Measured values: patent publication US20210024620A1

Legend:
[1] = molecular target: biotinylated human FcRn (human) (UniProt P55899); assay: Biacore, pH 6.0
rat FcRn (rat) [2] = molecular target: rat FcRn (rat) (UniProt P13599); assay: Biacore, pH 6.0
rat FcRn (rat) [3] = molecular target: rat FcRn (rat) (UniProt P13599); assay: Octet BLI, pH 6.0
[4] = molecular target: biotinylated human FcRn (human) (UniProt P55899); assay: Biacore SPR, pH 7.4
rat FcRn (rat) [5] = molecular target: rat FcRn (rat) (UniProt P13599); assay: Biacore SPR, pH 7.4
[6] = molecular target: biotinylated human FcRn (human) (UniProt P55899); assay: Biacore SPR, pH 6.0
[7] = molecular target: biotinylated human FcRn (human) (UniProt P55899); assay: Biacore SPR, pH 6.0; remark: listed apart in the source
[8] = molecular target: biotinylated human FcRn (p51 subunit residues 24-297 with C-terminal Avi-tag; beta2-microglobulin residues 21-119) (human) (UniProt P55899); assay: Biacore SPR, pH 6.0
rat FcRn (rat) [9] = molecular target: rat FcRn (rat) (UniProt P13599); assay: Biacore SPR, pH 6.0
[10] = molecular target: biotinylated human FcRn (human) (UniProt P55899); assay: Biacore SPR, pH 7.4; remark: listed apart in the source
[11] = molecular target: Human CD16a (FcγRIIIa V158) with C-terminal HPC4 tag (human) (UniProt P08637); assay: Biacore SPR, FcγRIIIa
[12] = molecular target: biotinylated human FcRn (human) (UniProt P55899); assay: Biacore, pH 6.0, apparent KD
rat FcRn (rat) [13] = molecular target: rat FcRn (rat) (UniProt P13599); assay: Biacore, pH 6.0, apparent KD
[14] = molecular target: biotinylated human FcRn (p51 subunit residues 24-297 with C-terminal Avi-tag; beta2-microglobulin residues 21-119) (human) (UniProt P55899); assay: Biacore SPR, pH 7.4, steady state
[15] = molecular target: biotinylated human FcRn (human) (UniProt P55899); assay: Biacore SPR, pH 7.4, 1000 nM antibody
rat FcRn (rat) [16] = molecular target: rat FcRn (rat) (UniProt P13599); assay: Biacore SPR, pH 7.4, 1000 nM antibody
[17] = molecular target: biotinylated human FcRn (human) (UniProt P55899); assay: Biacore, pH 7.4, steady state response
rat FcRn (rat) [18] = molecular target: rat FcRn (rat) (UniProt P13599); assay: Biacore, pH 7.4, steady state response
[19] = molecular target: Human CD16a (FcγRIIIa V158) with C-terminal HPC4 tag (human) (UniProt P08637); assay: Biacore SPR, FcγRIIIa-V158 captured, pH 7.4
[20] = molecular target: Human CD16a (FcγRIIIa V158) with C-terminal HPC4 tag (human) (UniProt P08637); assay: Biacore, FcγRIIIa V158 captured, steady-state fit, apparent KD
[21] = molecular target: biotinylated human FcRn (p51 subunit residues 24-297 with C-terminal Avi-tag; beta2-microglobulin residues 21-119) (human) (UniProt P55899); assay: Biacore; affinity at pH 6.0 (M^-1) over steady state RU at pH 7.4
[22] = molecular target: FcRn immobilised on the FcRn affinity column (biotinylated cynoFcRn in one experiment, biotinylated hFcRn in another); assay: FcRn affinity chromatography, linear pH gradient; species of the immobilised FcRn not given
[23] = molecular target: biotinylated human FcRn (p51 subunit residues 24-297 with C-terminal Avi-tag; beta2-microglobulin residues 21-119) (human) (UniProt P55899); assay: Biacore; inverse ratio (RU at pH 7.4 over affinity at pH 6.0)
rat FcRn (rat) [24] = molecular target: rat FcRn (rat) (UniProt P13599); assay: Octet BLI screen, pH 6.0

Human CD16a (FcγRIIIa V158) with C-terminal HPC4 tag (human), sequence (P08637 17-208 F176V): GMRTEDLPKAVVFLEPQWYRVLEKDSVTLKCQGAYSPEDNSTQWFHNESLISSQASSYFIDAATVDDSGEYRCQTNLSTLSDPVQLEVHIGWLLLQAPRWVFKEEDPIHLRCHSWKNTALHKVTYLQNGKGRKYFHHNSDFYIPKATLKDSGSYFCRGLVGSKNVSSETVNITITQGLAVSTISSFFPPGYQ
rat FcRn (rat), sequence (P13599 23-298 limits assumed, chain 1 of 2): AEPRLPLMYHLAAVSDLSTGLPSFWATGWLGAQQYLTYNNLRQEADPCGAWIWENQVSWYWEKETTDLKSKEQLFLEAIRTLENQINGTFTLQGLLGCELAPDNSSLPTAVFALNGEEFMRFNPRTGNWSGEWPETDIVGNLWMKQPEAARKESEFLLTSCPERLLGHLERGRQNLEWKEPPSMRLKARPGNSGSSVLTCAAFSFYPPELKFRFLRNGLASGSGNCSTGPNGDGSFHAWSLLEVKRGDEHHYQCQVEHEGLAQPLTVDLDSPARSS
rat FcRn (rat), sequence (P07151 21-119 limits assumed, chain 2 of 2, further chain): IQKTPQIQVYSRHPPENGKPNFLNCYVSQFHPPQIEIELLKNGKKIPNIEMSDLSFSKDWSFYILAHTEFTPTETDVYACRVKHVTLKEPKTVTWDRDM

Row | koff [1] [s⁻¹] | kon [1] [M⁻¹ s⁻¹] | koff (rat FcRn (rat) [2]) [s⁻¹] | kon (rat FcRn (rat) [2]) [M⁻¹ s⁻¹] | koff (rat FcRn (rat) [3]) [s⁻¹] | Steady State RU [4] [RU] | Steady State RU (rat FcRn (rat) [5]) [RU] | Kd [6] [nM] | koff [6] [s⁻¹] | kon [6] [M⁻¹ s⁻¹] | koff [7] [s⁻¹] | kon [7] [M⁻¹ s⁻¹] | Ka [8] [M⁻¹] | Kd (rat FcRn (rat) [9]) [nM] | koff (rat FcRn (rat) [9]) [s⁻¹] | kon (rat FcRn (rat) [9]) [M⁻¹ s⁻¹] | Kd (rat FcRn (rat) [13]) [nM] | Steady State RU (rat FcRn (rat) [16]) [RU] | FcγRIIIa V158 affinity fold change relative to WT [19] [fold] | FcRn affinity column elution pH [22] [pH] | Substance | also measured
1 | 0.05 | 143000 | 0.0012 | 65000 | 0.00066 | 13.2 | 53.9 | 342 | 0.047 | 140000 | 0.045 | 143000 | 2.92e+06 | 18 | 0.00121 | 65200 | 18 | 53.9 | 0.52 | 8.14 | mAb1 YTE (M252Y/S254T/T256E) (antibody) | Steady State RU [10]: 13.1 RU; reduction in binding response vs wildtype [11]: 50%; Kd [12]: 342 nM; Steady State Binding, pH 7.4 (RU) [14]: 13.2 RU; Steady State RU [15]: 13.2 RU; Steady State RU [17]: 13.2 RU; Steady State RU (rat FcRn (rat) [18]): 53.9 RU; Kd [20]: 1040 nM; Ratio (pH 6.0/pH 7.4) [21]: 221000
2 | 0.05 | 193000 | 0.0066 | 91000 | 0.00338 | 18.3 | 24.8 | 272 | 0.05 | 190000 | 0.052 | 193000 | 3.68e+06 | 74 | 0.00658 | 90800 | 74 | 24.8 | 1.04 | 8.29 | mAb1 LS (M428L/N434S) (antibody) | Steady State RU [10]: 18.5 RU; Kd [12]: 272 nM; Steady State Binding, pH 7.4 (RU) [14]: 18.3 RU; Steady State RU [15]: 18.3 RU; Steady State RU [17]: 18.3 RU; Steady State RU (rat FcRn (rat) [18]): 24.8 RU; Ratio (pH 6.0/pH 7.4) [23]: 4.97e-06; Kd [20]: 369 nM; Ratio (pH 6.0/pH 7.4) [21]: 201000
3 |  |  | 0.0035 | 145000 | 0.00133 |  | 66 |  |  |  |  |  |  | 23 | 0.00346 | 145000 | 23 | 47 | 1.41 | 8.46 | mAb1 N434Y (antibody) | enhancement of FcγRIIIa binding vs WT [11]: 16 to 40%; fold slower off-rate vs WT (rat FcRn (rat) [24]): > 2 fold
4 |  |  |  |  |  |  | 61.5 |  |  |  |  |  |  | 26 |  |  | 26 | 54.9 |  |  | mAb1 N434F (antibody) | enhancement of FcγRIIIa binding vs WT [11]: 16 to 40%
